Patent US20230265192A1 (GIGAGEN, published 2023)

Legend:
[1] = biological target: T1, recombinant human CTLA-4-Fc (7268-CT, R&D Systems) (human, UniProt P16410 36-162); assay: blocking ELISA, coated CTLA-4-Fc, competitor His-CD80
T1 construct: bought; also called rhCTLA-4-Fc; rhCTLA4-Fc; Fc part of the bought chimera not given
Description: (§1) Table 24. […] Summary of blocking ELISA data from FIG. 13B. […] The data were then analyzed and fit by nonlinear regression.
(§2) ELISA plates (Nunc, MaxiSorp ELISA plates, flat bottom, uncoated, BioLegend, San Diego, Calif., USA) were coated with recombinant human CTLA-4-Fc (7268-CT, R&D Systems, Minneapolis, Minn., USA) at 1 μg/mL overnight at 4° C. Plates were then blocked with 5% milk in phosphate buffered saline with tween 20 (PBST) for 1 hour at room temperature. A titration series of the indicated mAbs was then added to the plates and then the plates were incubated for 1 hour at room temperature to allow mAb binding. Excess, unbound mAb was removed by washing with PBST. […] After incubation for 1 hour at room temperature, the plates were washed to remove unbound ligand. Bound ligand was detected with a horseradish peroxidase (HRP)-conjugated anti-His antibody (652504, BioLegend, San Diego, Calif., USA). After incubation for 1 hour at room temperature and washing, the plates were developed with 3,3′,5,5′-Tetramethylbenzidine (TMB) substrate (34028, Pierce, Waltham, Mass., USA). […] Absorbance at 450 nm was read using a Spectramax i3x plate reader (Molecular Devices. San Jose, Calif., USA). Half maximal inhibitory concentration (IC50) values were calculated by plotting absorbance versus the log of concentration using Prism (GraphPad, San Diego, Calif., USA).

[2] = biological target: T1, recombinant human CTLA-4-Fc (7268-CT, …); assay: blocking ELISA, coated CTLA-4-Fc, competitor His-CD86
Description: as §1, §2

T1 sequence (P16410 36-162): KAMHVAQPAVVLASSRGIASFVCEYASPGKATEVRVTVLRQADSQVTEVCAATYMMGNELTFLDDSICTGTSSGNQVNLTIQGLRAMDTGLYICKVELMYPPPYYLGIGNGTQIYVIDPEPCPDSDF

- IC50 [1]: 0.12 µg/mL
- IC50 [2]: 0.12 µg/mL
B1: antibody A5 (L5H5) (antibody, V domains shown)
VH: QVQLVESGGGVVQPGRSLRLSCAASGFTFSSYGMHWVRQAPGKGLEWVAVIWYDGNNKYYADSVKGRFTISRDNSKNTLYLQMYSLRAEDTAVYYCARGGILAAGIFDYWGQGTLVTVSS
VL: EIVLTQSPGTLSLSPGDRATLSCRASQSGSSSYLAWYQQKPGQAPRLLIYGASSRATGIPDRFSGSGSGTDFTLTISRLEPEDFAVYYCQQYGTSPFTSGPGTKVDIK
notes: also called aCTLA-4.28; CTLA4.A5
